T1: Purified recombinant Scc1 with C-terminal FLAG epitope, from baculovirus-infected insect cells, unphosphorylated, Q12158
T1 chain: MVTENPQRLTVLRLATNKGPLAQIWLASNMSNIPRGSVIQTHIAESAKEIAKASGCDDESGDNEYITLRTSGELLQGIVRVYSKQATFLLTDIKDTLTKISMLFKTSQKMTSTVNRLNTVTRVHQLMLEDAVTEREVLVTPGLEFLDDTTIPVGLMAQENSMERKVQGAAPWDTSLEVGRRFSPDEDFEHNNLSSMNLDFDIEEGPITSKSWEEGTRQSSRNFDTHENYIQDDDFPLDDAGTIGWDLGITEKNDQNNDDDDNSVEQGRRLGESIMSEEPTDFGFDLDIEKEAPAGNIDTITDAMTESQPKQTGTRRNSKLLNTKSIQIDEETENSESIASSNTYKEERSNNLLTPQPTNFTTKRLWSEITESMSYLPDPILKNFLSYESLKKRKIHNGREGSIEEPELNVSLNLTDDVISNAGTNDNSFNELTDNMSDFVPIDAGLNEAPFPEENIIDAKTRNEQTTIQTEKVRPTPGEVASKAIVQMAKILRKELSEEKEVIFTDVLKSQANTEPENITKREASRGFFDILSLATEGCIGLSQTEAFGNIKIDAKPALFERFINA

T2: Purified recombinant Scc1 with C-terminal FLAG epitope, from okadaic acid treated insect cells, mitotically phosphorylated form, Q12158
T2 chain: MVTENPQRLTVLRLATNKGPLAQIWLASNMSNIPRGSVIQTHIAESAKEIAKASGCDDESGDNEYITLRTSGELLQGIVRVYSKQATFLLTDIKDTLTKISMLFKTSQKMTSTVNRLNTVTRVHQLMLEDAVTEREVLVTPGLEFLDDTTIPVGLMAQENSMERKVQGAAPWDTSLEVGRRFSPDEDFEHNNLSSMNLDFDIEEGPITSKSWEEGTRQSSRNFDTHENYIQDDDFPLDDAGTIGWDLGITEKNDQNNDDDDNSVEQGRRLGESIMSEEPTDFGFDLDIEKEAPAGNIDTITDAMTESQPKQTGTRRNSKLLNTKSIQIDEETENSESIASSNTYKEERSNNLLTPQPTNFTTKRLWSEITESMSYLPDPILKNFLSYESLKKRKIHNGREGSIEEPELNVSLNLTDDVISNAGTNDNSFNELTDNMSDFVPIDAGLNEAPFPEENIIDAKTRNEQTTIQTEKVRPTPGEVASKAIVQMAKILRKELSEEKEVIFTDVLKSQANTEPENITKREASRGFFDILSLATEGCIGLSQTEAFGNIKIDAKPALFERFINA

T3: Scc1p R180D R268D double mutant, HA tagged (non-cleavable Scc1p), Q12158
T3 chain: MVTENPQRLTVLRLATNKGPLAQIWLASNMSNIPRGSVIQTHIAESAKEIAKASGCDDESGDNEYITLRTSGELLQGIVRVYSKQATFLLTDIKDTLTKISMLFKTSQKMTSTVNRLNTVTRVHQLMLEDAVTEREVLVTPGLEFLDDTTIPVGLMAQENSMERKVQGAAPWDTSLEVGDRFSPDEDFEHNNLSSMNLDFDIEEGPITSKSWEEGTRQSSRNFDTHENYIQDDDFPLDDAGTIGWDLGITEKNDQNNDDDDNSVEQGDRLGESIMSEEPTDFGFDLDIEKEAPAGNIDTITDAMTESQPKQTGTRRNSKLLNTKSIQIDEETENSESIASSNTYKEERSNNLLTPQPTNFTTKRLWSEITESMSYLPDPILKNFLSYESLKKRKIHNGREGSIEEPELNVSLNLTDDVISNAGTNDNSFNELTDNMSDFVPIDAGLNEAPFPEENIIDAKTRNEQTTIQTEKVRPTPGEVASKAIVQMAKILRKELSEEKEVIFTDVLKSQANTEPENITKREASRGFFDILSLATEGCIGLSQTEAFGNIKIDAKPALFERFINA

T4: Scc1p tagged with multiple HA epitopes, chromatin-bound (chromatin of nocodazole-arrested yeast), Q12158
T4 chain: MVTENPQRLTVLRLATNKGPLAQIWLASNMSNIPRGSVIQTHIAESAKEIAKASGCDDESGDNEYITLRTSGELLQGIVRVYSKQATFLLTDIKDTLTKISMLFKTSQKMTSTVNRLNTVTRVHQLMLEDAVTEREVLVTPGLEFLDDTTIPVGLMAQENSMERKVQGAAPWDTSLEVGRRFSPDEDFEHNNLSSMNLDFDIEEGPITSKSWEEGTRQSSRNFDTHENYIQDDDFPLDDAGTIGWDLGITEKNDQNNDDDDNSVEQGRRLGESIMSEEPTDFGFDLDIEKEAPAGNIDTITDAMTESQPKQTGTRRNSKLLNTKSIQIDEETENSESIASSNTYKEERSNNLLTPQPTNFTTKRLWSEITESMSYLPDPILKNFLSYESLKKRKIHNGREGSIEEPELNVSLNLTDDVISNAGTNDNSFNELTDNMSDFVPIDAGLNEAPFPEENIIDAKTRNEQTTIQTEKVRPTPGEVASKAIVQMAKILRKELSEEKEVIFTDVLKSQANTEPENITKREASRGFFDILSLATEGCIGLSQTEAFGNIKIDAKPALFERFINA

T5: Scc1p tagged with myc epitopes at the C-terminus (endogenous wild type), Q12158
T5 chain: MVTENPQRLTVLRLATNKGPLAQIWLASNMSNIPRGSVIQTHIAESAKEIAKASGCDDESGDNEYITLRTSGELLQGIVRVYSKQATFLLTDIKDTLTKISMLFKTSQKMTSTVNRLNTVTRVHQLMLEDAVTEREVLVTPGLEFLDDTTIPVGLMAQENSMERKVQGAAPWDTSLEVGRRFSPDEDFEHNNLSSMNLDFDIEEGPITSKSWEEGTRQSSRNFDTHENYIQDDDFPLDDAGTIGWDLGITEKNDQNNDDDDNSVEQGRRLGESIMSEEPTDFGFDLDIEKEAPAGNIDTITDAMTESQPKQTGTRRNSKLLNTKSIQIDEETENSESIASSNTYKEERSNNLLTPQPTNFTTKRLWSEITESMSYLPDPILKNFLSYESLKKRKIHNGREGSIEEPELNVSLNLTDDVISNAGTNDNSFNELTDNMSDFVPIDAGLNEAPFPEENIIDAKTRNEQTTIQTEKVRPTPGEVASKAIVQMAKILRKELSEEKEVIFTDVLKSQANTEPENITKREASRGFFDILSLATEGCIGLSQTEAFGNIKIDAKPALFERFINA

T6: Scc1p with arginine 268 mutated to aspartic acid, HA tagged, Q12158
T6 chain: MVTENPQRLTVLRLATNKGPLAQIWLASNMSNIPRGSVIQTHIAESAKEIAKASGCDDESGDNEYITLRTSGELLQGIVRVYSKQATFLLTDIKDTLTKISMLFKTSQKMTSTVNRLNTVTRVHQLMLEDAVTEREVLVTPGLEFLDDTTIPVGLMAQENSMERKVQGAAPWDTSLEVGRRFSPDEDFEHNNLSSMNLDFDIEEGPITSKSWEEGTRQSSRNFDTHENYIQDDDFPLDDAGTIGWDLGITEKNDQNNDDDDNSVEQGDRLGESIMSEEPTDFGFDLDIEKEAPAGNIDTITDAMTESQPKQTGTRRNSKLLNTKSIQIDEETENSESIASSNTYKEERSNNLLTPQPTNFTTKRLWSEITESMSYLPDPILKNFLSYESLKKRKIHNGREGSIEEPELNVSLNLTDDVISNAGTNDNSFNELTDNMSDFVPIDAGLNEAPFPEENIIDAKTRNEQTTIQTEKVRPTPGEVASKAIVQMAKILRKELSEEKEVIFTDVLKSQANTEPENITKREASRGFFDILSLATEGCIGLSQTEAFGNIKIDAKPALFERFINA


How the values were obtained:
Esp1 = target: T7, Esp1 (Saccharomyces cerevisiae, UniProt Q03018); assay: In vitro assay for yeast Esp1p activity (Esp1-dependent Scc1p cleavage); type: biochemical; conditions: yeast chromatin incubated with extract over-producing Esp1; Western blot
T7 construct: made in house; host or cells: S. cerevisiae W303 derivative overexpressing Esp1p from the GAL1-10 promoter; soluble cell extract, not purified
Description: A crude Triton X-100 insoluble chromatin preparation was obtained from yeast cells as described (Liang and Stillman, 1997). The pelleted chromatin was resuspended in yeast cell extracts that had been prepared similar to the supernatant fraction of the chromatin preparation. One tenth volume of an ATP regenerating system was added (50 mM HEPES/KOH pH-7.5, 100 mM KCl, 10 mM MgCl2, 10 mM ATP, 600 mM creatin phosphate, 1.5 mg/ml phophocreatin kinase, 1 mM DTT, 10% glycerol). Reactions were incubated for 10 min at 25° C. with shaking and stopped on ice. The chromatin fraction was separated again from the supernatant by centrifugation, and resuspended in buffer EBX (Liang and Stillman, 1997). Equivalent aliquots of supernatant and chromatin pellet were analysed by SDS-PAGE and Western blotting. Scc1-HA was detected with the anti-HA monoclonal antibody 16B12 (Boehringer Mannheim). […]
Chromatin was prepared from a strain containing Scc1p tagged with HA epitopes that was arrested in metaphase with nocodazol. The proteins in the chromatin preparation were resolved by SDS-PAGE and Scc1-HA was detected by western blotting (FIG. 2, lane 1). […] Aliquots of the supernatant fraction and the chromatin fraction of each reaction were analysed.

[1] = target: T1, Purified recombinant Scc1 with …
[2] = target: T2, Purified recombinant Scc1 with …
[3] = target: T3, Scc1p R180D R268D double mutant, HA …
[4] = target: T4, Scc1p tagged with multiple HA epitopes, …
[5] = target: T5, Scc1p tagged with myc epitopes at the …
[6] = target: T6, Scc1p with arginine 268 mutated to …

Molecule | Esp1-dependent in vitro cleavage of Scc1p (Esp1) | cleavage assay using purified Scc1 (Western blot, anti-FLAG) [1] | cleavage assay using purified Scc1 (Western blot, anti-FLAG) [2] | Scc1p cleavage in Esp1-containing extracts (chromatin substrate) [3] | Scc1p cleavage and dissociation from chromatin in vitro (Western blot of chromatin and supernatant fractions) [4] | Scc1p cleavage in Esp1-containing extracts (chromatin substrate) [5] | Scc1p cleavage in the Esp1 assay (chromatin substrate) [6]
Pds1: yeast inhibitory protein binding Esp1; in vitro translated in reticulocyte lysate (protein) MMPANEDKENNIVYTGNESSGINFPQTPAHLLKRSHSNILKPPVRLDQLKRDANSNNGNTLKYIQGGKEVSPTKRLHTHAQQQGRLPLAAKDNNRSKSFIFPETSNQSKDADLPQLQNTLSIRKNDQLRKLSQISRSRSRANHNDLLSNSRKLQKYGSVLGYNALPKMKSLVLKDLADSGKNEESSDDDEGNEDSESKLGKKLQSALLKQDSSDGENELNGGLGLFNEQGGLQQLIKNSTKNEQKTKNDKSDKTDDYDIEIAPQRQEPLPYVPEGYSPFQQDDIEKLKTFNSPYKLDLEDEDDTPDKVDLLPLEQIDEEGEKDETECITRNQEEGAALPLLSKNFKEVAAVPTMELVYSEEGLDPEELEDLVT | inhibited |  |  |  |  |  | 
Esp1p (yeast separin), wild type, overproduced from the GAL1-10 promoter in yeast cell extract (protein) MMVKQEEPLNEISPNTPMTSKSYLLNDTLSKVHHSGQTRPLTSVLSGDASSNSIGILAMHNNIIRDFTKIASNNIDLAIEDITTVDHSLNSIYSLLKSHHMWGHINSTVKQHLMIIVKLINNNALGLASSEIIFLFNETNLFQAHSLKNILLADFSTWNDYYLSNLKILALQIILKRKLVDEYLPHILELFSHDKRYLLKDPNLKAHALTKIVLSFFSVTTSCKVLFGLKFLQYIKQFKLPFKKFISNITVECFSKNLLHKNYLEMGPNKIYLNSFYLSYSMLYDGLDKIMLLDILSYEETTEVQRAIKSKKEFNEYCNMSENRLLWSCISVDDLNVILENATNFLQNKGKHISATLKCLVCLWSTIRLEGLPKNKDILRQFDCTVIYINSNIKSINDESAAALLSELLGVLSEICIDYKEPKRLSNIISVLFNASVLFKSHSFLLKTANLEISNVLISNDSKTSHRTILKFEKFISSAQSAQKKIEIFSCLFNVYCMLRNDTLSFVFDFCQNAFIHCFTRLKITKFIEFSNSSEIMLSVLYGNSSIENIPSENWSQLSRMIFCSLRGIFDLDPLELNNTFDKLHLLNKYELLIRIVYLLNLDMSKHLTTNLSKITKLYINKWLQKSDEKAERISSFEMDFVKMLLCYLNFNNFDKLSIELSLCIKSKEKYYSSIVPYADNYLLEAYLSLYMIDDALMMKNQLQKTMNLSTAKIEQALLHASSLINVHLWDSDLTAFQIYFGKTLPAMKPELFDINNDHNLPMSLYIKVILLNIKIFNESAKLNIKAGNVISAVIDCRKAQNLALSLLKKKNKLSQGSRLALLKSLSFSFFQLIKIHIRIGSARDCEFYSKELSRIISDLEEPIIVYRCLHFLHRYYMITEQTCLQNITLGKANKAFDYLDAEADITSLTMFLYDNKEFVKLEQSLVLYFGDQLEKTFLPNLWKLHLGKDIDDSICLSEYMPKNVINRVHNMWQKVMSQLEEDPFFKGMFESTLGIPSSLPVIPSTMPNNILKTPSKHSTGLKLCDSPRSSSMTPRGKNIRQKFDRIAAISKLKQMKELLESLKLDTLDNHELSKISSLSSLTLTILSNITSIHNAESSLITNFSLTDLPRHMPLLFDKVLNNIDNKNYREFRVSSLIAPNNISTITESIRVSAAQKDLMESNLNINVITIDFCPITGNLLLSKLEPRRKRRTHLRLPLIRSNSRDLDEVHLSFPEATKKLLSIINESNQTTSVEVTNKIKTREERKSWWTTRYDLDKRMQQLLNNIENSWFNGVQGFFSPEVVDNSLFEKFKDKFYEILHQNLPSRKLYGNPAMFIKVEDWVIELFLKLNPQEIDFLSKMEDLIYFVLDILLFHGEENAYDEIDFSMLHVQLEEQIKKYRATMTTNSIFHTFLVVSSSCHLFPWECLSFLKDLSITRVPSYVCLNKLLSRFHYQLPLQVTIEDNISMILNPNGDLSRTESKFKGMFQKIIDAKPSSQLVMNEKPEEETLLKMLQNSNLFVYIGHGGGEQYVRSKEIKKCTKIAPSFLLGCSSAAMKYYGKLEPTGTIYTYLLGGCPMVLGNLWDVTDKDIDKFSEELFEKMGFRCNTDDLNGNSLSVSYAVSKSRGVCHLRYLNGAAPVIYGLPIKFVS |  | Both unphosphorylated and phosphorylated purified Scc1 were cleaved in an Esp1-dependent manner in vitro | the efficiency of cleavage was much greater when Scc1 was in the mitotically phosphorylated state | HA tagged double mutant protein was no longer cleaved when incubated in Esp1-containing extracts | most disappears from the chromatin fraction upon incubation with extracts containing high levels of wild type Esp1 protein | the myc tagged wild type protein was efficiently cleaved | cleavage at site 268 was indeed eliminated by the aspartic acid mutation. However, the mutated protein was still cleaved in an Esp1-dependent manner
